Measurements from publication PMC4191604 (Journal of Medicinal Chemistry, 2014).
Substitutions are numbered along the chain they refer to.

What was measured:
Assay in all cases: SPR
[1] = target: T1, GBP1 mutant Q72A (human, UniProt P32455 1-592, Q72A)
T1 sequence (looked up): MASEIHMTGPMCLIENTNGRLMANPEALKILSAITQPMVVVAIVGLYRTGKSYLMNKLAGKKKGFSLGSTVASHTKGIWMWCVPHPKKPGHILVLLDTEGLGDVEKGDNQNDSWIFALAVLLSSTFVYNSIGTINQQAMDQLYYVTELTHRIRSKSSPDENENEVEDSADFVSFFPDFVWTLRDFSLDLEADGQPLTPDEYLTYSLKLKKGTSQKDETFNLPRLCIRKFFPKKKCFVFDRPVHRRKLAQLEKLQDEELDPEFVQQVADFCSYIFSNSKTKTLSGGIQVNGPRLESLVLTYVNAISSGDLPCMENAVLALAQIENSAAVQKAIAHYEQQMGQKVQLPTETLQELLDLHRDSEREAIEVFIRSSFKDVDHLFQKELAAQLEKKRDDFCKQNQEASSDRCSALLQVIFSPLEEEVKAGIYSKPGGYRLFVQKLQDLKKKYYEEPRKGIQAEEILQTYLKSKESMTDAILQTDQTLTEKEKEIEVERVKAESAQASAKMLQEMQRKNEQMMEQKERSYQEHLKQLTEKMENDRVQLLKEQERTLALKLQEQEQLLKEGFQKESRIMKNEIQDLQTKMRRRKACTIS

[2] = target: T2, GBP1 mutant R227E/K228E (human, UniProt P32455 1-592, R227E | K228E)
T2 sequence (looked up): T1 sequence (looked up) with A72Q, R227E, K228E

[3] = target: T3, GBP1 GTPase (human GBP1, recombinant wild type) (human, UniProt P32455 1-592)
T3 sequence (looked up): T1 sequence (looked up) with A72Q

[4] = target: T4, GBP1 mutant R48A (human, UniProt P32455 1-592, R48A)
T4 sequence (looked up): T1 sequence (looked up) with R48A, A72Q

Kd [1]: 161 ± 17 nM
Kd [2]: > 10000 nM
Kd [3]: 30 ± 10 nM
Kd [4]: 21 ± 0.1 nM
B1: PIM1 (recombinant) (enzyme)
chain: not shown
